Results taken from the DeepSol protein solubility set.

Test: soluble on expression in E. coli; label from the status in PepcDB or PDB records

Sequence	soluble on expression in E. coli
MKDAQLNTLCQRHQAVLINSASNSITVAVVDAPSHALLDALHFATQKQIDIVCWTRQQMENHRHKPDQAPSANAAKGGETAAQLLNQTLRSAMAKRASDIHLEPGASRYRIRLRIDGVLHILQDIAKETGLALTARLKVLGNLDIAEHRLPQDGQFTVDLAGDSISFRIATLPCKEGEKVVLRLLHQVEQTLDLDTLGMYGAQLTAFRQALQQPQGLVLVTGPTGSGKTVTLYSALQTRNTPGINLCSVEDPIEIPLDGINQTQIHPRAGLTFQNVLRALLRQDPDIIMVGEIRDGDTAEIAIKAAQTGHLVLSTLHTNSTSETLIRLQQMGVARWMISSALTLVVAQRLVRKLCPHCKQRLSDPVVLSPNLWPSAIPRWQASGCQHCYHGFYGRTALFEVLTVTPALRQLIASGASAQALEAHLQQTGTGTLFENGCRAVEQGMTSFEEILCVLGMPHER	not soluble
MAGDPMYKIGIDVGGTNTDAVILDHQLNLIHSVKVPTTDDIQTGIAGALNKVLAESAVDPTKVTHAMLGTTQCTNAIVERKKLAKVGVLRLGYPATASVLPYTAWPKDLVATLSETYALAHGGYEYDGQPLTALDEEELRGILASWRGEVEAIAVIGVFSSLKNDQELFVQALAKEVLGADVPVSCSSMIGSVGLIERENATILNAALHKVIKVTSEGFEQALEQEKIHHAQVYLCQNDGTLMSLTYAKQFPILTIACGPTNSIRGASYLAGLKDAVVLDVGGTTSDIGVLVDGFPRESSLAVDVGGVRTNFRMPDIVSIGVGGGSLVREQPDGSVTVGPDSVGYRITQEALVFGGTQLTTTDIAVRLGHAQVGDPSKVAHLDQAFAEKVYQKIGELVSEAIDRMKTSSADVTVVLVGGGSIIIPEELTGVKALIRNKNGAVANAIGASIAQISGQYEQIYVYSKIQRDAALTDAQEKAVQQAELAGAVPGTIELVEVEETPLAYHPENATRLRVKVVGNMYLEHHHHHH	soluble
MKSLSALEAEQWITIRSIFLIDLPFRSFSFSLPAEEKQDLQCNLQNLVNHNFSFLQVIHLQVSHINDADVLTGLNGRIGSFLLPSIATGTGTATGTAATTGASAITASSRSRRILGDEFEDHVIVPATCGSRAVVGKPQRIIDLETKVDTSNIPHRTVLFLFHTGTSKRGIENPQAVNLHLIPCYEHLLHRADKGLHHMLHIFHRKRTDRLDLTRQRLDRIKFRFPRLGFEHIHHRRFVITNLFFALIAHHRHCCHTEFVLKKRRTFSLSVGETKIRQCTGNFPDYDGLCRTMTG	not soluble
IKQMLLDWCRAKTRGYEHVDIQNFSSSWSDGMAFCALVHNFFPEAFDYGQLSPQNRRQNFEVAFSSAETHADCPQLLDTEDMVRLREPDWKCVYTYIQEFYRCLVQKGLVKTKKS	soluble
MGSDKIHHHHHHMKSKANQSQGLLLFRLSQHQIFALGTLKIRELVPYTPLSKIPQSHPTILGAATIRGHTIPVVDMAAAIGYRPVSDEERQHCYIIITDCQRMIIGFLVRAIDKIIECNWRDIEAPSANLGKNAFLTGVTRYDNQLVQLLDVELLLSKVFPDAPEANRAILTDVQREKLKPRRILLVDDSKVARKQLSDALDSINIPYFVTPDGREALSIMEQAAAEHHPIDILVSDIEMPGLDGYELAFEVRDNPLLANAYIILHTSLSSEISVSQAHQVGANEALTKFDAHELVEAMLRGAELAAKRAN	not soluble
MGSDKIHHHHHHMLATYLKSLNENDRSLYNEGEDVIQGLIQSPKTLPPKYFYDDYGSELFEQICELSEYYPTRTEAWILRQYADEIAQITGNCELVELGSGSSTKTLFLLDAYQKIASHCRYIPIDVSHGILKSSVLKLQQKYPNFFVEGLIGTYEQALIKLESTFAASRMIFFLGSSLGNFNPRECDDFLRQITRTLQAGDYFLLGIDLQKPKEILEPAYNDSQGVTAAFNLNILSHLNWRFQGNFDLSLFTHQAIYNENDAQIEMYLHCQKSHEVSLEALDLQVSFAGGESILTEISRKFDLVNMQKQLETHGLKTLKTWTDPNQWFGLILCQA	not soluble
MIIRNVRILICMNTIYYEAHNNLYLNLTNRCSADCIFCIRNFADGVYGYNLRLSKEPSTEEIIEALEGLDLSKYREIVFTGLGEPTLRLDVVLAVTRWLKNQGLRVRLDTNGHAALINPKLDVIAELKKAGLDSVSVSLNAESEEKYNKLCRPVHKNAYRAMLDFVRGAKEAGISTRVTVVKIPEIDVEKCRKVSEELGSDFHIRLLSEAASQEIRE	not soluble
MSLFLDVQGTLISDHDKSLIHGAKELIDFLNAKNLPYLIITNNTKKLDFLEKLQQKGLVIKENAYIDPFSVLKHLLRPCKVAAFGADEFVKSLENLGFELDFVNPSAVLVASYDDFKFKDFATMIELARREVRFIAMHETSIYKKDGRPYPGVGSIMAMLKNAIDFEYEVVGKPSIAFYKEALNLIRRQNSKIDFEDIKIISDDFRGDLLKAKELGMKTLLVLSGKISDTKGLDTDLLDGVYPSVFEFLKDLKCQIEGHHHHHH	not soluble
MKKFFRFQLCCICLLVLIVSACKVKRPDSVISESEMENLLYDYHIAKAMGENMPGGENYKKALYVEAVFKKYGTTEEVFDSSMVWYTRNTKILSEIYEKVNKRLKAQQNAINHLIALRDNKPKMSAPGDSINVWAWQRIAQLTEAPLNNKFTFTLPSDTNFKKRDVLLWKMQYNFLSEIPDSTMAPIMAMQIVYENDTVTHSCVKHIFKSGIQNIRLQSDTMNIKEIKGFIFCPLSEESITLLVSDISLTRYHANDSITQISKDSLKTDSIKEKSKNDSIQKKTPKDTIQASSSHQRTNPNDLNRPNNDVRPIKPEQREKEMQIEKEKQQLERQQRTNPRRPLRRQNN	not soluble
MDMNSFSPMMPTSPLSMINQIKFEDEPDLKDLFITVDEPESHVTTIETFITYRIITKTTRGEFDSSEFEVRRRYQDFLWLKGKLEEAHPTLIIPPLPEKFIVKGMVERFNDDFIETRRKALHKFLNRIADHPTLTFNEDFKIFLTAQAWELSSHKKQGPGLLSRMGQTVRAVASSMRGVKNRPEEFMEMNNFIELFSQRINLIDKISQRIYKEEREYFDEMKEYGPIHILWSASEEDLVDTLKDVASCIDRCCKATEKRMSGLSEALLPVVHEYVLYSEMLMGVMKRRDQIQAELDSKVEVLTYKKADTDLLPEEIGKLEDKVECANNALKADWERWKQNMQNDIKLAFTDMAEENIHYYEQCLATWESFLTSQTNLHLEEASEDKP	soluble
MTVFRQENVDDYYDTGEELGSGQFAVVKKCREKSTGLQYAAKFIKKRRTKSSRRGVSREDIEREVSILKEIQHPNVITLHEVYENKTDVILILELVAGGELFDFLAEKESLTEEEATEFLKQILNGVYYLHSLQIAHFDLKPENIMLLDRNVPKPRIKIIDFGLAHKIDFGNEFKNIFGTPEFVAPEIVNYEPLGLEADMWSIGVITYILLSGASPFLGDTKQETLANVSAVNYEFEDEYFSNTSALAKDFIRRLLVKDPKKRMTIQDSLQHPWIKPKDTQQALSRKASAVNMEKFKKFAARKKWKQSVRLISLCQRLSRSFLSRSNMSVARSD	soluble
MGGVFSSASSNQAQITGILQELERTRLEREIALAHLQERRRIAFKIAEEREKFNWIACGGSLVVVLSALSSFHHKNLLHVIPIFPMASFIGYKAHFCYGDQLKKISETSTQLLEESVDALVPLPPTIADVRSRSKQIKEEESSNY	not soluble
SDTRQLPNRPVEVTIMGLGCAQMGNLYRVTPYEESKGAFDKAWESGMRYFDTAPFYGYTRSERRLGTMVTEHDRGDYTLSTKVGRVMVPDETVGPEEDAYIAPLPFRPVYDYSYDGILRSFEASQQRLGILKPDILYVHDIGSHTHGEKHQHYWEQLTTGGGFRALGKLRDEGSTGAVGLGVNEWEIINDAMDVFDIDVAMLAGRYTLLEQQSLAFMNRCAESGVAIVVAGAFNSGILAGNRKFNYADAPADILKRVDALHNVCEELGVSLQAAALQFPLAHPASVTVVSGARNAQQLASNIEWFEQSIPDEFWSELHK	not soluble
GPLGSKVDLFDFELPERLIAQVPLEQRDASRLMVLDKHTGELTDSSFKHIISFFNEGDCLVLNNTRVLPARLFGTKEDTGAKVELLLLKQETGDKWETLAKPAKRVKKGTVVTFGDGRLKAICTEELEHGGRKMEFQYDGIFYEVLESLGEMPLPPYIKEQLDDKERYQTVYSKEIGSAAAPTAGLHFTEEILQQLKDKGVQIEFITLHVGLGTFRPVSADEVEEHNMHAEFYQMSEETAAALNKVRENGGRIISVGTTSTRTLETIAGEHDGQFKASSGWTSIFIYPGYEFKAIDGMITNFHLPKSSLIMLVSALAGRENILRAYNHAVEEEYRFFSFGDAMLII	soluble
MSLRPRAQTAGTWPRVCIESVTPSVDNGRFPVKRTVGDRICVEADAFCDGHDRIAVAVLWRPADAKAWASAPMRALGNDRWRAEFPLERIGTYEFRVEAWRDVFATLHADLEKKRAANTVLPVDVQEAVAAVQAAQARSDGALAERLQTVLTRIGAQSEPLQQLAIVLEPDTAQAMALADDKPFRSEYPVTFRVESERRAAHFSSWYELFPRSQSGDASRHGTFDDVIKRLPHIRAMNFDVLYMPPIHPIGLNNRKGRNNSVTAVEGEPGSPYAIGATDGGHTEVHAELGGLEGFRRLIEAARAQGLEVALDFAIQCAPDHPWLKEHKDWFTWRADGSIPYAENPPKKYQDIVNVDFYASGAVPDLWNTLRDAVLFWVNEGVTLFRVDNPHTKPFPFWEWLIADVRGRRPDVVFLSEAFTRPKMMYRLAKCGFSQSYTYFTWRNHKHELRAYVEELNDGVPRECFRPHFFVNTPDINPLFLQTSGRNGHLIRAALATTLSGLWGMYQGFELCEATPLAPGKEEYLDSEKFQLRAWPERVPGDIVEEITRFNQLRRMHPELQSHLGTRFYQAHNDQVLYYGKFLDAGYLSRSRSMVLVAINLDPHAGQDADIEIPLWELGLPDHASVAVEDLWDGHRFAWHGKYQHIRLEATRPFALWRIRAGEGHHHHHH	soluble
SLIDMGDYTLKELETWNEKIEGIVNEMGLNYYNQEFEIISYNGMLEAEAYTGMPSRYPHWSYGKAYEKQKTLYGYDLVGLPYEMVINSNPCIAYLMKENTLLLQILTMAHVYGHNDFFKNNRLFREGTDASETVNMFKNDADTIRNYIDNPAIGNEKVEKILDAAHAIRYQTHRVIGEKRLSYEEIRNKIIQDYNSSYKPRSIIEPYEKPVEPDLSKIPLEPEDDIIYFIENYGNLQEWERNVIEIVRRETAYFIPQIETKIMNEGWASFWHYTILNELKLPDGLHLEFLKRHNDVLSPILGSLNPYYLGFKILKDIEDRYGRDKIFEVREIERDESFIRKYLTRELCEELNLFEFSKRRGEYIIDNVADEEGWKNIRNSICSGCGMNSIPVIRVVELSKKDNNLILEHLYDGRELNMQYAEETLKYVVNLWKGKVTLKTTIEGKEYRIVCDENKKICEVK	soluble
MSLSEDLFDVEVRNFEEGDKVTGTVTSVEDKQVYVGIPGSKLDGVVPISELSNIHVETASDVVSVGDTLDLIVTKVEDDILVLSKRKVDAEKASDDIKAKFESGEVFEAVVSDVVKGGLVVDLGVRAFVPASLVEDHFVEDFADYKGTTLTFKVVEFEPENNRVILSHRAVVETEKASQKQALLSEIKEGDVIEGTVQRLANFGAFVDIGGVDGLVHISQISYKHIATPQEALEEGQKVTVKVIGIDPENERISLSIKATLPGPWDGIAEKAPVGSVLEGKVVRLVTFGAFVEIFPGVEGLVHISQISHEHIGTPQEVLSEGQTVEVKVLEVNEADKRLSLSIKELKDAPVEEADYELPEENTGFQMSDLIGDKLKGLQNDDKEGHHHHHH	soluble
MNIFVNMRIMVAHTPDPDDAFMFYGMFEGKIRTSNQYEQVIKDIETLNKESKEGKYEVTAISANGYVQVRDLYKLTRSGASFGISYGPIVVARNEIDLSKSRMGVPGFMTSSYLLYRMFGPEAKEYVEIKFDEIPDAILTGKVDAGILIHDEQLTFQKRGLKEVFDIYSAWKSYAGNLPIPLGFNAIRKDLDEDTVNKFLYDFERSIRYAMAHEEEAVKYAMKYARYTDLDLERRFVRMYVNELSIDFGDTGRKALELYYNRAAGKGLIPPFKPEIV	not soluble
